Source: patent US20090047272

Target: G-actin in human serum

Protein	Average T50 (min) 50% DNA hydrolysis in human serum	Time T50 (min) 50% DNA hydrolysis in human serum
wild-type human DNase I (protein) LKIAAFNIQTFGETKMSNATLVSYIVQILSRYDIALVQEVRDSHLTAVGKLLDNLNQDAPDTYHYVVSEPLGRNSYKERYLFVYRPDQVSAVDSYYYDDGCEPCGNDTFNREPAIVRFFSRFTEVREFAIVPLHAAPGDAVAEIDALYDVYLDVQEKWGLEDVMLMGDFNAGCSYVRPSQWSSIRLWTSPTFQWLIPDSADTTATPTHCAYDRIVVAGMLLRGAVVPDSALPFNFQAAYGLSDQLAQAISDHYPVEVMLK	28 min	26; 28; 30
actin-resistant version of DNase I, arDNase (+1), substitution A114R (protein) LKIAAFNIQTFGETKMSNATLVSYIVQILSRYDIALVQEVRDSHLTAVGKLLDNLNQDAPDTYHYVVSEPLGRNSYKERYLFVYRPDQVSAVDSYYYDDGCEPCGNDTFNREPRIVRFFSRFTEVREFAIVPLHAAPGDAVAEIDALYDVYLDVQEKWGLEDVMLMGDFNAGCSYVRPSQWSSIRLWTSPTFQWLIPDSADTTATPTHCAYDRIVVAGMLLRGAVVPDSALPFNFQAAYGLSDQLAQAISDHYPVEVMLK	3 min	2; 3; 4
